Laboratory results reported in patent US20170044239A1.

Experiments:
[1] = biological target: hemagglutinin on BS/07 H1N1 virus (A/Brisbane/59/2007) (Influenza A virus A/Brisbane/59/2007 (H1N1)); assay: cell-based or functional assay
[2] = biological target: BS/07 H1 HA (recombinant ectodomain of hemagglutinin from A/Brisbane/59/2007, H1N1) (Influenza A virus A/Brisbane/59/2007 (H1N1))

F10 IgG (antibody)
IC50, neutralization of BS/07 H1N1 infection [1]: 1.85 µg/mL

F10 scFv (phage-free soluble, E-tag)
normalized binding affinity [2]: 1 | normalized neutralizing potency against BS/07 H1N1 [1]: 1
